Measurements reported in patent US20260234261A1.
Read-outs that look alike come from different tables or passages of the source.

What was measured:
Experiment in all cases: FACS binding
[1] = molecular target: CHOS-hCCR8-hCTLA-4 cell (human) (UniProt P16410)
[2] = molecular target: CHOS-hCCR8-hCTLA-4 cell (human) (UniProt P16410); remark: listed apart in the source
[3] = molecular target: CHOS-hCCR8-hCTLA-4 cell (human) (UniProt P16410); remark: listed apart in the source

Sequence of CHOS-hCCR8-hCTLA-4 cell (human) (P16410 36-223, chain 1 of 2): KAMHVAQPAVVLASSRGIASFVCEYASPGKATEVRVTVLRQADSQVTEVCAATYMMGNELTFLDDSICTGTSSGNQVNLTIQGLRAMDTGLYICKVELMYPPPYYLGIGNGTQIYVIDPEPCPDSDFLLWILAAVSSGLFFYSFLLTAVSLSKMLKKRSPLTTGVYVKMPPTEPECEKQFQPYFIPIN
Sequence of CHOS-hCCR8-hCTLA-4 cell (human) (P51685 whole entry, chain 2 of 2, further chain): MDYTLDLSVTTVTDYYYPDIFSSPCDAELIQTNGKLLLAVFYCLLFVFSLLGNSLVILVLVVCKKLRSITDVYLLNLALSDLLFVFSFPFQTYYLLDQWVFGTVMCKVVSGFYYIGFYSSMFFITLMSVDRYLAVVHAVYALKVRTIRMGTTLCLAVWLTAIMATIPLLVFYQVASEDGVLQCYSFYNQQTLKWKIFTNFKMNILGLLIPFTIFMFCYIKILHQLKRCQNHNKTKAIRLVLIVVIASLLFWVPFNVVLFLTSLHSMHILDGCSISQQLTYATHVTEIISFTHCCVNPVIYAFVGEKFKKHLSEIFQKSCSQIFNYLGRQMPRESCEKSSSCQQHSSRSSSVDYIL

EC50 [1]: 682 pM | EC50 [2]: 750 pM | EC50 [3]: 722 pM
Substance: Yervoy
